B1: VRC07-523LS.v14 (antibody, V domains shown)
VH: QVRLSQSGGQMKKPGDSMRISCDASGYEFINCPINWIRLAPGKRPEWMGWMKPRFGAVSYARQLQGRVTMTRQLSQDPDDPDWGTAFLELRSLTSDDTAVYFCTRGKYCTARDYYNWDFEHWGQGTPVTVSS
VL: LTQSPGTLSLSPGETAIISCDTSQYGSLAWYQQRPGQAPRLVIYSGSTRAAGIPDRFSGSRWGPDYNLTISNLESGDFGVYYCQQYEFFGQGTKVQVDI
B2: VRC07-523LS.v32 (antibody, V domains shown)
VH: QVRLSQSGGQMKKPGDSMRISCSASGYEFINCPINWIRLAPGKRPEWMGWMKPRFGAVSYARQLQGRVTMTRQLSQDPDDPDWGTAFLELRSLTSDDTAVYFCTRGSYCTARDYYNWDFEHWGQGTPVTVSS
VL: LTQSPGTLSLSPGETAIISCSTSQYGSLAWYQQRPGQAPRLVIYSGSTRAAGIPDRFSGSRWGPDYNLTISNLESGDFGVYYCQQYEFFGQGTKVQVDI
B3: N6LS.C1 (antibody, V domains shown)
VH: RAHLVQSGTAMKKPGASVRVSCQTSGYTFTAHILFWFRQAPGRGLEWVGWIKPQYGAVNFGGGFRDRVTLTRQLSQDPDDPDWGIAYMDIDGLKPDDTAVYYCARDRSYGDSSWALDAWGQGTTVVVSA
VL: YIHVTQSPSSLSVSIGDDVTINCQTSQGVGSDLHWYQHKPGRAPKLLIHHTSSVEDGVPSRFSGSGFHTSFNLTISDLQADDIATYYCQVLQFFGRGSRLHIKR
B4: N6LS.C30 (antibody, V domains shown)
VH: RAHLVQSGTAMKEPGASVRVSCQTSGYTFTAHILFWFRQAPGRGLEWVGWIKPQYGAVNFGGGFRDRVTLTRQLSQDPDDPDWGIAYMDIRGLKPDDTAVYYCARDRSYGDSSWALDAWGQGTTVVVSA
VL: YIHVTQSPSSLSVSIGDEVTINCQTSQGVGSDLHWYQHKPGRAPKLLIHHTSSVEDGVPSRFSGSGFHTSFNLTISDLQADDIATYYCQVLQFFGRGSRLHIKR

Target: HIV-1 Env of the 208-virus panel (Env-pseudoviruses)
Test: cell-based or functional assay

Binder | neutralization of Env-pseudoviruses on TZM-bl cells, share of the panel at IC80 less than 1 µg/ml (% of the 208-virus panel) | neutralization of Env-pseudoviruses on TZM-bl cells, share of the panel at IC80 <1 µg/ml (% of 208 viruses) | neutralization of Env-pseudoviruses on TZM-bl cells, share of the panel at IC80<1 µg/ml (% of viruses (208-virus panel))
B1 | 92 |  | 
B2 | 92 |  | 
B3 |  | > 73 | 73
B4 |  | > 73 | 77

From patent US20250197483A1
